Source: patent US20210238260

Biological target: Factor X (FX), P00742
Sequence (P00742 whole entry, looked up): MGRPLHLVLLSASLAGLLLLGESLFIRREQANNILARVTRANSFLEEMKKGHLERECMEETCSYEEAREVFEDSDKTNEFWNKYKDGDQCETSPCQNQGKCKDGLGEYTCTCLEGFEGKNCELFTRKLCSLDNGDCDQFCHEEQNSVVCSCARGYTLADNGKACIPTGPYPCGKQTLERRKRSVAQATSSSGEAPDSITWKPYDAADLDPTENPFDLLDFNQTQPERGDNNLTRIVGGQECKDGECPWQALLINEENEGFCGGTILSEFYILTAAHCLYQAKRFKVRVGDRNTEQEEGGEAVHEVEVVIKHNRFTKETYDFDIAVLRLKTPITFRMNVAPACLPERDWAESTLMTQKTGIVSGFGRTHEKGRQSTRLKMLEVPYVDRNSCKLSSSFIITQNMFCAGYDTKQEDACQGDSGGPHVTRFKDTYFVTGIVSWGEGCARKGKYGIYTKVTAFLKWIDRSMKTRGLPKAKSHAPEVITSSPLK

Protein | % of WT kcat/KM | KM | kcat (s^-1) of FX activation by FIXa variant in the Xase complex (FVIIIa, PC/PS vesicles, Ca2+), fluorogenic FXa read-out | kcat/KM for FX activation (Xase: FVIIIa, PC/PS vesicles, Ca2+)
FIXa-K247N/N249S/R318Y/R338E/T343R/E410N (protein) chain 1: YNSGKLEEFVQGNLERECMEEKCSFEEAREVFENTERTTEFWKQYVDGDQCESNPCLNGGSCKDDINSYECWCPFGFEGKNCELDVTCNIKNGRCEQFCKNSADNKVVCSCTEGYRLAENQKSCEPAVPFPCGRVSVSQTSKLTR chain 2: VVGGEDAKPGQFPWQVVLNGKVDAFCGGSIVNEKWIVTAAHCVETGVKITVVAGEHNIEETEHTEQNRSVIRIIPHHNYNAAINKYNHDIALLELDEPLVLNSYVTPICIADKEYTNIFLKFGSGYVSGWGRVFHKGYSALVLQYLRVPLVDRATCLESTKFRIYNNMFCAGFHEGGRDSCQGDSGGPHVTEVEGTSFLTGIISWGEECAMKGKYGIYTKVSRYVNWIKNKTKLT | 687% | 0.0328 µM | 8.8 s⁻¹ | 3.2e+08 M⁻¹ s⁻¹
FIXa-Y155F/K247N/N249S/R338E/E410N (protein) chain 1: YNSGKLEEFVQGNLERECMEEKCSFEEAREVFENTERTTEFWKQYVDGDQCESNPCLNGGSCKDDINSYECWCPFGFEGKNCELDVTCNIKNGRCEQFCKNSADNKVVCSCTEGYRLAENQKSCEPAVPFPCGRVSVSQTSKLTR chain 2: VVGGEDAKPGQFPWQVVLNGKVDAFCGGSIVNEKWIVTAAHCVETGVKITVVAGEHNIEETEHTEQNRSVIRIIPHHNYNAAINKYNHDIALLELDEPLVLNSYVTPICIADKEYTNIFLKFGSGYVSGWGRVFHKGRSALVLQYLRVPLVDRATCLESTKFTIYNNMFCAGFHEGGRDSCQGDSGGPHVTEVEGTSFLTGIISWGEECAMKGKYGIYTKVSRYVNWIKNKTKLT | 1009% | 0.0177 µM | 7.3 s⁻¹ | 4.7e+08 M⁻¹ s⁻¹
FIXa-K247N/N249S/R318Y/T343R/E410N (protein) chain 1: YNSGKLEEFVQGNLERECMEEKCSFEEAREVFENTERTTEFWKQYVDGDQCESNPCLNGGSCKDDINSYECWCPFGFEGKNCELDVTCNIKNGRCEQFCKNSADNKVVCSCTEGYRLAENQKSCEPAVPFPCGRVSVSQTSKLTR chain 2: VVGGEDAKPGQFPWQVVLNGKVDAFCGGSIVNEKWIVTAAHCVETGVKITVVAGEHNIEETEHTEQNRSVIRIIPHHNYNAAINKYNHDIALLELDEPLVLNSYVTPICIADKEYTNIFLKFGSGYVSGWGRVFHKGYSALVLQYLRVPLVDRATCLRSTKFRIYNNMFCAGFHEGGRDSCQGDSGGPHVTEVEGTSFLTGIISWGEECAMKGKYGIYTKVSRYVNWIKNKTKLT | 439% | 0.0401 µM | 6.1 s⁻¹ | 2e+08 M⁻¹ s⁻¹
FIXa-K247N/N249S/R318Y/T343R/R403E/E410N (protein) chain 1: YNSGKLEEFVQGNLERECMEEKCSFEEAREVFENTERTTEFWKQYVDGDQCESNPCLNGGSCKDDINSYECWCPFGFEGKNCELDVTCNIKNGRCEQFCKNSADNKVVCSCTEGYRLAENQKSCEPAVPFPCGRVSVSQTSKLTR chain 2: VVGGEDAKPGQFPWQVVLNGKVDAFCGGSIVNEKWIVTAAHCVETGVKITVVAGEHNIEETEHTEQNRSVIRIIPHHNYNAAINKYNHDIALLELDEPLVLNSYVTPICIADKEYTNIFLKFGSGYVSGWGRVFHKGYSALVLQYLRVPLVDRATCLRSTKFRIYNNMFCAGFHEGGRDSCQGDSGGPHVTEVEGTSFLTGIISWGEECAMKGKYGIYTKVSEYVNWIKNKTKLT | 279% | 0.0805 µM | 9.5 s⁻¹ | 1.3e+08 M⁻¹ s⁻¹
FIXa-Y155F/K247N/N249S/R318Y/T343R/E410N (protein) chain 1: YNSGKLEEFVQGNLERECMEEKCSFEEAREVFENTERTTEFWKQYVDGDQCESNPCLNGGSCKDDINSYECWCPFGFEGKNCELDVTCNIKNGRCEQFCKNSADNKVVCSCTEGYRLAENQKSCEPAVPFPCGRVSVSQTSKLTR chain 2: VVGGEDAKPGQFPWQVVLNGKVDAFCGGSIVNEKWIVTAAHCVETGVKITVVAGEHNIEETEHTEQNRSVIRIIPHHNYNAAINKYNHDIALLELDEPLVLNSYVTPICIADKEYTNIFLKFGSGYVSGWGRVFHKGYSALVLQYLRVPLVDRATCLRSTKFRIYNNMFCAGFHEGGRDSCQGDSGGPHVTEVEGTSFLTGIISWGEECAMKGKYGIYTKVSRYVNWIKNKTKLT | 668% | 0.0381 µM | 8.1 s⁻¹ | 3.1e+08 M⁻¹ s⁻¹
FIXa-Y155F/K247N/N249S/R318Y/T343R/R403E/E410N (protein) chain 1: YNSGKLEEFVQGNLERECMEEKCSFEEAREVFENTERTTEFWKQYVDGDQCESNPCLNGGSCKDDINSYECWCPFGFEGKNCELDVTCNIKNGRCEQFCKNSADNKVVCSCTEGYRLAENQKSCEPAVPFPCGRVSVSQTSKLTR chain 2: VVGGEDAKPGQFPWQVVLNGKVDAFCGGSIVNEKWIVTAAHCVETGVKITVVAGEHNIEETEHTEQNRSVIRIIPHHNYNAAINKYNHDIALLELDEPLVLNSYVTPICIADKEYTNIFLKFGSGYVSGWGRVFHKGYSALVLQYLRVPLVDRATCLRSTKFRIYNNMFCAGFHEGGRDSCQGDSGGPHVTEVEGTSFLTGIISWGEECAMKGKYGIYTKVSEYVNWIKNKTKLT | 350% | 0.0606 µM | 9 s⁻¹ | 1.6e+08 M⁻¹ s⁻¹
FIXa-Y155F/K247N/N249S/R318Y/T343R/R403E (protein) chain 1: YNSGKLEEFVQGNLERECMEEKCSFEEAREVFENTERTTEFWKQYVDGDQCESNPCLNGGSCKDDINSYECWCPFGFEGKNCELDVTCNIKNGRCEQFCKNSADNKVVCSCTEGYRLAENQKSCEPAVPFPCGRVSVSQTSKLTR chain 2: VVGGEDAKPGQFPWQVVLNGKVDAFCGGSIVNEKWIVTAAHCVETGVKITVVAGEHNIEETEHTEQNRSVIRIIPHHNYNAAINKYNHDIALLELDEPLVLNSYVTPICIADKEYTNIFLKFGSGYVSGWGRVFHKGYSALVLQYLRVPLVDRATCLRSTKFRIYNNMFCAGFHEGGRDSCQGDSGGPHVTEVEGTSFLTGIISWGEECAMKGKYGIYTKVSEYVNWIKEKTKLT | 276% | 0.0605 µM | 7.5 s⁻¹ | 1.3e+08 M⁻¹ s⁻¹
FIXa-K247N/N249S/R318Y/T343R/R403E (protein) chain 1: YNSGKLEEFVQGNLERECMEEKCSFEEAREVFENTERTTEFWKQYVDGDQCESNPCLNGGSCKDDINSYECWCPFGFEGKNCELDVTCNIKNGRCEQFCKNSADNKVVCSCTEGYRLAENQKSCEPAVPFPCGRVSVSQTSKLTR chain 2: VVGGEDAKPGQFPWQVVLNGKVDAFCGGSIVNEKWIVTAAHCVETGVKITVVAGEHNIEETEHTEQNRSVIRIIPHHNYNAAINKYNHDIALLELDEPLVLNSYVTPICIADKEYTNIFLKFGSGYVSGWGRVFHKGYSALVLQYLRVPLVDRATCLRSTKFRIYNNMFCAGFHEGGRDSCQGDSGGPHVTEVEGTSFLTGIISWGEECAMKGKYGIYTKVSEYVNWIKEKTKLT | 84% | 0.105 µM | 3.7 s⁻¹ | 3.9e+07 M⁻¹ s⁻¹
